Data published in the supplement of paper PMC9170038.

Tested on: MS2 coat protein
Experiment: apparent KD of MS2 coat protein; designed switch direction (-1 OFF switch, 1 ON switch): 1; higher = weaker reporter binding
How it was run: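 SNAP-549-labelled MS2 coat protein was titrated, doubling from 0.7 or 1.5 nM to 3 µM, over designed RNA switches transcribed on Illumina chips by stalled E. coli RNA polymerase. Runs were done without input, with 200 uM small-molecule ligand, or with an oligonucleotide input. Apparent KD is the per-design median over clusters of curve-fitted normalised fluorescence.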

[1] = input ligand: microRNA oligo, concentration not stated
[2] = Eterna round: R95, input ligand: microRNA oligo, concentration not stated
[3] = Eterna round: R95, input ligand: FMN 200 uM
[4] = Eterna round: R95, input ligand: none

Sequence	apparent KD of MS2 coat protein [1]	apparent KD of MS2 coat protein (input ligand: FMN 200 uM)	apparent KD of MS2 coat protein (input ligand: none)	apparent KD of MS2 coat protein [2]	apparent KD of MS2 coat protein [3]	apparent KD of MS2 coat protein [4]
AAUUUAAUACAUGAGGAUCACCCAUGUAAUACUAGUAAGAUCUAGGAUAUCAGCUCGAUUAGAGCUGAGAAGGAGAUCACAUGU [SSNG3/19-C2] (Eterna round: R96, puzzle: Same State NG 3)	82.9 nM	–	–	–	–	–
GUGGCGGGUUGAGGAUAUUGGUUGCAUAUGUUUAACAUGAGGAUCACCCAUGUGGGUUGCGGUUUCGAGAAGGUAGGUUGCUGG [salish99_SSNG2_r04_044] (Eterna round: R96, puzzle: Same State NG 2)	95.3 nM	155 nM	140 nM	–	–	–
AUUAUACAUGAGGAUCACCCAUGUAAUUAAUUAAUUAAGAUCAAGGAUAUCAGCUCGAUUAGAGCUGAGAAGGUGAUCACAUGU [SSNG3/20-B2] (Eterna round: R96, puzzle: Same State NG 3)	170 nM	–	–	–	–	–
AGCUAGUACCGAGGAUAUACGUACAUGAGGAUCACCCAUGUAUACAUGGUUUAAUGAGACUACAUGUAGAAGGCGGUACUAGCA [JL SSNG2 1.25] (Eterna round: R96, puzzle: Same State NG 2)	532 nM	175 nM	636 nM	–	–	–
UUAAUGAUGAUAGGAUAUACAUGAGGAAUUCUCGUAGAAGGAUCAUGACAUGAGGAUCACCCAUGUAUCGCUCGAUAGAGCGUA [Mat - Same State NG 1 - JL mod - D34] (Eterna round: R96, puzzle: Same State NG 1)	142 nM	844 nM	158 nM	–	–	–
GGAGCCGGCCUAGGAUAUUUCAUAAAGAAACAUGAGGAUCACCCAUGUAGGCCAGAAGGCCUUGGGAAGAAGGAGGUCGGCUCC [Loop Effect - G27] (Eterna round: R96, puzzle: Same State NG 2)	29 nM	12.4 nM	28.7 nM	–	–	–
AUCAUUAAUGCAGGAUAUGAUUAACAUGAGGAUCACCCAUGUGGUGUUGUGAGUAAGGAGAGUGAUCAGAAGGGCAUUUUUUUU [JMF's solution 35] (Eterna round: R96, puzzle: Same State NG 2)	292 nM	699 nM	469 nM	–	–	–
CGCAGGCACGUAGGAUAUCUAGCGUGGGAGGCUAGAGAAGGAUGGAAUAACAUGAGGAUCACCCAUGUCGCCUCGCGGAAAUAA [Diorverire] (Eterna round: R96, puzzle: Same State NG 1)	17.4 nM	15.5 nM	32.8 nM	–	–	–
UGCAUACAUGAGGAUCACCCAUGUCAACUUAGUCGAGGAUAUGGGCAGCCCUGAGGCGAACCAGAAGGCGAAUUGU [JL-ss1-3.01 ViennaUCT mod] (puzzle: Same State 1)	–	–	–	94.5 nM	–	–
GCUACAUGAGGAUCACCCAUGUGUGUGUGGGAGUGAGUGGCUUAGGAUAUCUAUGAUUUUAGUUGAGAGAAGGAGGAUUGCUGU [SS-NG3-LRO09] (Eterna round: R96, puzzle: Same State NG 3)	317 nM	471 nM	336 nM	–	–	–
AGUCCAGCCUGAGCUGGACAAAAGCAUGUACAUGAGGAUCACCCAUGUUCAUGUACAAGCUUUUUGCUCGAAUUAAA [Mat - hsa-mir-208a - Mod of JL - 53] (puzzle: Sensor for hsa-mir-208a)	–	–	–	15.4 nM	558 nM	822 nM
GCGAAGAGGUAAGGAUAUUCAUGGCGGAGACAUGAGGAUCACCCAUGUAGGAGACGAAAUCAAAGGGAGAAGGUACCAGGACGC [AK SSNG2-V2-15] (Eterna round: R96, puzzle: Same State NG 2)	159 nM	82.2 nM	160 nM	–	–	–
ACAUGAGGAUCACCCAUGUAGGCUCAGGAAACUGUGCCACAUGAGGAUAUGGAUCCUAAUUGGAUCCAGAAGGCAUGAUUUAUU [Fiskers NG3ss - 21] (Eterna round: R96, puzzle: Same State NG 3)	1240 nM	243 nM	1290 nM	–	–	–
AGUCCAGCCUGAGCUGGACAAAAGCAUGUACAUGAGGAUCACCCAUGUCAUGUACAAGCUUUUUGCAAAUCUUAAUA [Mat - hsa-mir-208a - Mod of JL - D34] (puzzle: Sensor for hsa-mir-208a)	–	–	–	14.6 nM	603 nM	807 nM
GUGGUCAGACAUGAGGAUCACCCAUGUGGAAUAAAUAACAGACAGGAUAUUAAAUAUAGGAUAUAUAAGAAGGGUCGAUUGGUG (Eterna round: R96, puzzle: Same State NG 3)	78.5 nM	–	–	–	–	–
UCUUGGUUUUUGCUCGUUUUUUGUGUUGAACAUGAGGAUCACCCAUGUAUUGUACGGUCCGGUUUGGUAAUGGUCCG [JMF 10] (puzzle: Sensor for hsa-mir-208a)	–	–	–	16.1 nM	24.4 nM	27.8 nM

Sequence	apparent KD of MS2 coat protein [1]	apparent KD of MS2 coat protein (input ligand: FMN 200 uM)	apparent KD of MS2 coat protein (input ligand: none)	apparent KD of MS2 coat protein [2]	apparent KD of MS2 coat protein [3]	apparent KD of MS2 coat protein [4]
GCUAGAAUAAAUGCUAACAUGAGGAUCACCCAUGUAUGUUGGCAGGAUAUCGUUUGCAAAGCAAACGAGAAGGGCCAUACUAGC [Mat - Same State NG 3 - JL Mod - D26] (Eterna round: R96, puzzle: Same State NG 3)	26.3 nM	23.1 nM	38.1 nM	–	–	–
UUUAGCGUUACAGGAUAUGGUGAGGAUCACCCACUAGAAGGGUAAACAUGUGCGUCGUACAUGAGGAUCACCCAUGUAGGGCGU (Eterna round: R96, puzzle: Same State NG 1)	13.7 nM	14.4 nM	22.6 nM	–	–	–
AAACGGUCGCUGCGGCAACCACAUGAGGAUCACCCAUGUACAUAGGAUAUCGCCUAAAAUACUGGCGAGAAGGGUGAUUAAAGA [Onbiriza] (Eterna round: R96, puzzle: Same State NG 3)	17.9 nM	28.7 nM	73.7 nM	–	–	–
AUAGUUUCCGAAGGAUAUGAUGAGGAUCACCCAUCAGAAGGUUGGCUAUUGGGCUGACAUGAGGAUCACCCAUGUUCCGGUGUU (Eterna round: R96, puzzle: Same State NG 1)	31.9 nM	33.7 nM	43.3 nM	–	–	–
UGUUUGUUGUGAGGAUAUACAUACACCUUACAUGAGGAUCACCCAUGUUUUAAUUUUGAUAGUUAGUAGAAGGCACAUGAUUAU [JR_SSNG2_Sub044] (Eterna round: R96, puzzle: Same State NG 2)	28.1 nM	21.3 nM	46.5 nM	–	–	–
GAGCCAGUCCGAGGAUAUUCACAUGAGGAUCACCCAUGUAGGCUCAGAAAAGAAAAGGAGCCUUGGGAGAAGGCGGACUGGCUC [Xeonanisa<<8] (Eterna round: R96, puzzle: Same State NG 2)	9.87 nM	6.35 nM	13.3 nM	–	–	–
GUCGGUCUGUCGUGCUGAGGUGAUAGUUAACAUGAGGAUCACCCAUGUUGCUGUCGGGUCGUUGGGAGUUUUCUUCG [Modxample 118 - Jieux - Sensor for bsa-mir-208a] (Eterna round: R96, puzzle: Sensor for hsa-mir-208a)	15.4 nM	19.1 nM	22.5 nM	–	–	–
GUAAUACAUGAGGAUCACCCAUGUCAAUGUAGUCGAGGAUAUGGGUAGCUAUGAGGCGUACUAGAAGGCGAGGAGU [JL-ss1-3.18 ViennaUCT mod] (puzzle: Same State 1)	–	–	–	72.1 nM	258 nM	85.8 nM
GCGAGCGUACUUGCAGACAUGAGGAUCACCCAUGUAACUGGACAGGAUAUGGUACCGUUUCGGUACCAGAAGGGUUUAUCAUGU [JL SSNG3 3.55] (Eterna round: R96, puzzle: Same State NG 3)	140 nM	167 nM	193 nM	–	–	–
GGUAGGUUACUACCAAACAUGAGGAUCACCCAUGUAAGUGGGAAGGAUAUGGUACCUUUUAGGUACCAGAAGGUCCAAUUAAUU [JL Fiskers NG3ss - 2 mod 5] (Eterna round: R96, puzzle: Same State NG 3)	511 nM	205 nM	3700 nM	–	–	–
UGUUGUAUUACAGGAUAUCUAGCAUUUUUAUUUAGAGAAGGGUAUUCACAUGAGGAUCACCCAUGUAUAUACGAGGAAGUUGUG [JMF's solution 32] (Eterna round: R96, puzzle: Same State NG 1)	42.1 nM	54.9 nM	51.9 nM	–	–	–
GCCGCACAUGAGGAUCACCCAUGUAAUUACAUGGGAGGAUAUCAGUGCUCGAAAGAGCACUGAGAAGGCCUGAGGC [SS1 - Omei A v1] (Eterna round: R96, puzzle: Same State 1)	42.4 nM	887 nM	74.8 nM	–	–	–
AGUCCAGCCUGAGCUGGACAAAAGCAUGUACAUGAGGAUCACCCAUGUCAUGUGCAAGCUUUUUGCUCGUCUUAAUA [Zipper 49 - 5] (puzzle: Sensor for hsa-mir-208a)	–	–	–	11.9 nM	64.5 nM	70.3 nM
CCGUAGAUGGUAGGAUAUGGAGCCUUAUUGGCUCCAGAAGGAUCGAAAACAUGAGGAUCACCCAUGUCGGCGGUCAAUAGACCG [Eli NG1ss - 84] (Eterna round: R96, puzzle: Same State NG 1)	43.1 nM	21.8 nM	34.1 nM	–	–	–
GUAGCAUGCAGGCAGGAUAUUCAUAUUAAAACAUGAGGAUCACCCAUGUAGGCCGAAAGGCCUUGGGAGAAGGGCCACAUGCUAC [Xeonanis - 18] (Eterna round: R96, puzzle: Same State 2)	429 nM	36.8 nM	704 nM	–	–	–
